Two molecules from publication PMC2928777, “Neuropeptide delivery to the brain: a von Willebrand factor signal peptide to direct neuropeptide secretion” (BMC Neuroscience, 2010) can be followed below.

As usually defined, the EC50 is the concentration that produces a half-maximal response.

This test concerns the target T1, human MC4R (Homo sapiens, UniProt P32245).
T1 construct: expressed in transfected cells; host or cells: HEK 293T cells, transient transfection with polyethylenimine, co-transfected with CRE-LacZ
Briefly: LacZ reporter gene assay (MC4R_CRE-LacZ transfected 293T cells). The class given is cell-based. As to conditions: for EC50: 10% of the volume added was supernatant of 293T cells transfected with the named construct, antagonism of MC4R (rightward shift), average of 4 trials, read-out: EC50 of NDP-MSH dose response curve in presence of supernatant. As to the method: Activation of MC4R in vitro results in an increase in cyclic adenosine monophosphate (cAMP)[27]. In our assay upregulation of cAMP increased LacZ expression through a cAMP responsive element.
Activation of the MC4R was determined using LacZ as a reporter gene. DNA was transfected into cells with polyethylenimine. Fifty nanograms of human MC4R and 10 μg of cAMP-responsive element (CRE)-LacZ were transfected into 293T cells on 10cm dishes. Another five 10cm dishes with 293T cells were transfected with 10 μg of respectively pAAV-GFP, pAAV-flAgRP, pAAV-VWF-AgRP83-132 , pAAV-VWF-αMSH1 and pAAV-VWF-αMSH4. One day after transfection the MC4R_CRE-LacZ cells were transferred to poly-L-lysine coated 96-wells plates. Three days after transfection supernatant of 10cm dishes was removed and used for LacZ reporter assay. […] In addition only forskolin was added to other wells as a positive control for CRE-LacZ transfection and the subsequent colometric reaction. The medium of another plate with MC4R_CRE-LacZ transfected cells was replaced with assay buffer containing serial dilutions of conditioned medium from cells transfected with αMSH1, αMSH4 or GFP. […] After 5-6 hour incubation at 37°C the assay medium was removed and replaced by 40 μl lysisbuffer (phosphate buffered saline (PBS) containing 0.1% Triton-X-100). The plates were stored at -20°C. After thawing of the plates, 80 μl of substrate (0.1 M phosphate buffer, pH7.4, containing 1.6 g/l o-nitrophenyl β-D-galactopyranoside (ONPG, Invitrogen, the Netherlands), 67.5 mM β-mercaptoethanol (Merck, Germany) and 1.5 mM magnesium chloride) was added to each well. Absorbance at 405 nm was measured in a Victor^2 microplate reader (PerkinElmer, Brussels, Belgium).
Data were analyzed with GraphPad Prism (GraphPad Software Inc., California). Competition curves were fitted from duplicate data points using sigmoidal dose response curve with variable slope.
A general note: A reporter such as luciferase makes a cellular process visible.

T1 sequence (P32245 whole entry): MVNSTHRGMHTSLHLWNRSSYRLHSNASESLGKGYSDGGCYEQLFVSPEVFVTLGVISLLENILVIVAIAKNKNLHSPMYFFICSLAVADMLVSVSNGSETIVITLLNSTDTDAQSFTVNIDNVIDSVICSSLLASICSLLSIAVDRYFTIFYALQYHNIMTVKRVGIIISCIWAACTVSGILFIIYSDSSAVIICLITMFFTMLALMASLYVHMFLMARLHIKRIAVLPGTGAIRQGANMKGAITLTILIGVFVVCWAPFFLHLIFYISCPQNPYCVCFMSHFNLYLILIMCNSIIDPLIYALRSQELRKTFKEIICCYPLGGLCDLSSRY

As to “VWF-AgRP83-132: minigene product: VWF signal peptide, HA tag, furin site and AgRP83-132; tested as supernatant of transfected 293T cells (SPRRCVRLHESCLGQQVPCCDPCATCYCRFFNAFCYCRKLGTATNLCSRT; not fully specified; Secreted furin-released minigene product; VWF signal peptide, HA tag and RKRR furin site left out; The name 83-132 follows human numbering; it equals mouse precursor 82-131, since the printed primer e)”, the 50% effective concentration (EC50) stood at 0.5 nM.

B1: flAgRP: supernatant of 293T cells transfected with full length mouse Agouti-related protein construct with normal AgRP signal peptide (protein, UniProt P56473 1-131, looked up)
chain: MLTAMLLSCVLLLALPPTLGVQMGVAPLKGIRRPDQALFPEFPGLSLNGLKKTTADRAEEVLLQKAEALAEVLDPQNRESRSPRRCVRLHESCLGQQVPCCDPCATCYCRFFNAFCYCRKLGTATNLCSRT
modifications: full-length
notes: supernatant of 293T cells transfected with full length mouse Agouti-related protein construct with normal AgRP signal peptide
Turning to B1, the EC50 came out at 1.4 nM. The “Shift of NDP-MSH dose response curve in presence of supernatant” value (50% of the volume added was supernatant of transfected 293T cells) is reported as “shifted even further to the right”.
